Test results taken from IntAct's records for PubMed 21896273.

B1: Signal peptide peptidase-like 2A (Mus musculus), Q9JJF9 (parent)
chain: MGLLHSLHAPAAALLWSCLLGLAAAQEAILHASTNGVSSLSKDYCMYYNNNWTRLPSSLENATSLSLMNLTGTALCHLSDIPPDGIRNKAVVVHWGPCHFLEKARIAQEGGAAALLIANNSVLIPSSRNKSTFQNVTVLIAVITQKDFKDMKETLGDDITVKMYSPSWPNFDYTLVVIFVIAVFTVALGGYWSGLIELENMKSVEDAEDRETRKKKDDYLTFSPLTVVVFVVICCIMIVLLYFFYRWLVYVMIAIFCIASSMSLYNCLSALIHRMPCGQCTILCCGKNIKVSLIFLSGLCISVAVVWAVFRNEDRWAWILQDILGIAFCLNLIKTMKLPNFMSCVILLGLLLIYDVFFVFITPFITKNGESIMVELAAGPFENAEKLPVVIRVPKLMGYSVMSVCSVPVSVLGFGDIIVPGLLIAYCRRFDVQTGSSIYYISSTIAYAVGMIITFVVLMVMKTGQPALLYLVPCTLITVSVVAWSRKEMKKFWKGSSYQVMDHLDYSTNEENPVTTDEQIVQQ

Variants of: B1
Conditions: with lamp2_human LAMP2, P13473
Sequence of lamp2_human LAMP2, P13473 (P13473 whole entry): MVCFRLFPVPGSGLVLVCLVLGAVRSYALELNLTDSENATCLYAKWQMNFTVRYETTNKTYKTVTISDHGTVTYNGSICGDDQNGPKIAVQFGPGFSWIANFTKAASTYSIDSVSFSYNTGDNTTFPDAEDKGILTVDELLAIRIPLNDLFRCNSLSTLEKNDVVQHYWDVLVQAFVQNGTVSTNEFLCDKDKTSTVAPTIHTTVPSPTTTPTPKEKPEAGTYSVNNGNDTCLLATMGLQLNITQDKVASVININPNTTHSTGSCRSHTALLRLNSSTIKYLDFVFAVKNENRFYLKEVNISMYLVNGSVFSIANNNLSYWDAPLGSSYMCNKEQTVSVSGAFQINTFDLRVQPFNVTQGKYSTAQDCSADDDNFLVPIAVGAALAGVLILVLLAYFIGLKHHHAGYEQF

effect of a mutation on the interaction | Variant
disrupting interaction | MGLLHSLHAPAAALLWSCLLGLAAAQEAILHASTNGVSSLSKDYCMYYNNNWTRLPSSLENATSLSLMNLTGTALCHLSDIPPDGIRNKAVVVHWGPCHFLEKARIAQEGGAAALLIANNSVLIPSSRNKSTFQNVTVLIAVITQKDFKDMKETLGDDITVKMYSPSWPNFDYTLVVIFVIAVFTVALGGYWSGLIELENMKSVEDAEDRETRKKKDDYLTFSPLTVVVFVVICCIMIVLLYFFYRWLVYVMIAIFCIASSMSLYNCLSALIHRMPCGQCTILCCGKNIKVSLIFLSGLCISVAVVWAVFRNEDRWAWILQDILGIAFCLNLIKTMKLPNFMSCVILLGLLLIYDVFFVFITPFITKNGESIMVELAAGPFENAEKLPVVIRVPKLMGYSVMSVCSVPVSVLGFGDIIVPGLLIAYCRRFDVQTGSSIYYISSTIAYAVGMIITFVVLMVMKTGQPALLYLVPCTLITVSVVAWSRKEMKKFWKGSSAQVMDHLDYSTNEENPVTTDEQIVQQ [Y498A]

Variants of: B1
Conditions: with lamp2_human LAMP2, P13473
Remark: another data set of the same source

effect of a mutation on the interaction | Variant
disrupting interaction | MGLLHSLHAPAAALLWSCLLGLAAAQEAILHASTNGVSSLSKDYCMYYNNNWTRLPSSLENATSLSLMNLTGTALCHLSDIPPDGIRNKAVVVHWGPCHFLEKARIAQEGGAAALLIANNSVLIPSSRNKSTFQNVTVLIAVITQKDFKDMKETLGDDITVKMYSPSWPNFDYTLVVIFVIAVFTVALGGYWSGLIELENMKSVEDAEDRETRKKKDDYLTFSPLTVVVFVVICCIMIVLLYFFYRWLVYVMIAIFCIASSMSLYNCLSALIHRMPCGQCTILCCGKNIKVSLIFLSGLCISVAVVWAVFRNEDRWAWILQDILGIAFCLNLIKTMKLPNFMSCVILLGLLLIYDVFFVFITPFITKNGESIMVELAAGPFENAEKLPVVIRVPKLMGYSVMSVCSVPVSVLGFGDIIVPGLLIAYCRRFDVQTGSSIYYISSTIAYAVGMIITFVVLMVMKTGQPALLYLVPCTLITVSVVAWSRKEMKKFWKGSSYQVMDHLDASTNEENPVTTDEQIVQQ [Y506A]
